# Measurements published in doi:10.1101/172908 (bioRxiv, 2017).
# B1: rat Kir6.2 (natural protein)
# chain: MLSRKGIIPEEYVLTRLAEDPTEPRYRTRERRARFVSKKGNCNVAHKNIREQGRFLQDVFTTLVDLKWPHTLLIFTMSFLCSWLLFAMVWWLIAFAHGDLAPGEGTNVPCVTSIHSFSSAFLFSIEVQVTIGFGGRMVTEECPLAILILIVQNIVGLMINAIMLGCIFMKTAQAHRRAETLIFSKHAVITLRHGRLCFMLRVGDLRKSMIISATIHMQVVRKTTSPEGEVVPLHQVDIPMENGVGGNSIFLVAPLIIYHVIDSNSPLYDLAPSDLHHHQDLEIIVILEGVVETTGITTQARTSYLADEILWGQRFVPIVAEEDGRYSVDYSKFGNTVKVPTPLCTARQLDEDRSLLDALTLASSRGPLRKRSVAVAKAKPKFSISPDSLS
# Molecular target: the molecule itself
# Test: cryo-EM structure
protein,measurement,value
B1,stoichiometry N,4
